B1: Merlin (Homo sapiens), P35240 (parent)
chain: MAGAIASRMSFSSLKRKQPKTFTVRIVTMDAEMEFNCEMKWKGKDLFDLVCRTLGLRETWFFGLQYTIKDTVAWLKMDKKVLDHDVSKEEPVTFHFLAKFYPENAEEELVQEITQHLFFLQVKKQILDEKIYCPPEASVLLASYAVQAKYGDYDPSVHKRGFLAQEELLPKRVINLYQMTPEMWEERITAWYAEHRGRARDEAEMEYLKIAQDLEMYGVNYFAIRNKKGTELLLGVDALGLHIYDPENRLTPKISFPWNEIRNISYSDKEFTIKPLDKKIDVFKFNSSKLRVNKLILQLCIGNHDLFMRRRKADSLEVQQMKAQAREEKARKQMERQRLAREKQMREEAERTRDELERRLLQMKEEATMANEALMRSEETADLLAEKAQITEEEAKLLAQKAAEAEQEMQRIKATAIRTEEEKRLMEQKVLEAEVLALKMAEESERRAKEADQLKQDLQEAREAERRAKQKLLEIATKPTYPPMNPIPAPLPPDIPSFNLIGDSLSFDFKDTDMKRLSMEIEKEKVEYMEKSKHLQEQLNELKTEIEALKLKERETALDILHNENSDRGGSSKHNTIKKLTLQSAKSRVAFFEEL
partner: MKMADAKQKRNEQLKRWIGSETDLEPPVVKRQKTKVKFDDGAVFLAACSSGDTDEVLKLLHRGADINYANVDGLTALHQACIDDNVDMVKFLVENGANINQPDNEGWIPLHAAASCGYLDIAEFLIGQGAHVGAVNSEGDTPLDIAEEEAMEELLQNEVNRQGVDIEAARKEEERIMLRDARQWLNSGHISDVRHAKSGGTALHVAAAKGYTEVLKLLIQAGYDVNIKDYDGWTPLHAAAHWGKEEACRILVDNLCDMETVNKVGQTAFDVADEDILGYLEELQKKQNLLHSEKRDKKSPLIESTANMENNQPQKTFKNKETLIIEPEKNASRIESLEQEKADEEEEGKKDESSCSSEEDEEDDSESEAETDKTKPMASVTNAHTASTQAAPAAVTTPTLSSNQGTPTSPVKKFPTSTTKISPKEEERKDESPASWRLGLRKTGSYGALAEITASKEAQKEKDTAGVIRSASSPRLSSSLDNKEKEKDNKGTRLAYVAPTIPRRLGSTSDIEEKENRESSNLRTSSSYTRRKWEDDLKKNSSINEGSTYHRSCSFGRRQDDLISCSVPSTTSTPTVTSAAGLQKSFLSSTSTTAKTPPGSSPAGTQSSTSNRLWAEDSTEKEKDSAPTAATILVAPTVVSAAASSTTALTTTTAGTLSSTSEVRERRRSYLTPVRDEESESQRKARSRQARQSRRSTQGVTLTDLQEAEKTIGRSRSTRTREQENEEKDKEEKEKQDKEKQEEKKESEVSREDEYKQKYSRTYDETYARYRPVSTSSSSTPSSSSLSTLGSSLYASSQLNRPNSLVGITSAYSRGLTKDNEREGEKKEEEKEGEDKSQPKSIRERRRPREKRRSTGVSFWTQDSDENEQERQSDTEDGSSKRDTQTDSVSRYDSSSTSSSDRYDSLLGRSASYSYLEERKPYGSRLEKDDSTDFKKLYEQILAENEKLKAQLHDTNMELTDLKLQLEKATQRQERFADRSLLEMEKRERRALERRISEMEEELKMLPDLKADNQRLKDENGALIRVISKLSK

Variants of: B1
Conditions: with mypt1_rat Ppp1r12a

Row | Variant | effect of a mutation on the interaction
1 | MAGAIASRMSFSSLKRKQPKTFTVRIVTMDAEMEFNCEMKWKGKDLFDLVCRTLGLRETWFFGLQYTIKDTVAWLKMDKKVLDHDVSKEEPVTFHFLAKFYPENAEEELVQEITQHLFFLQVKKQILDEKIYCPPEASVLLASYAVQAKYGDYDPSVHKRGFLAQEELLPKRVINLYQMTPEMWEERITAWYAEHRGRARDEAEMEYLKIAQDLEMYGVNYFAIRNKKGTELLLGVDALGLHIYDPENRLTPKISFPWNEIRNISYSDKEFTIKPLDKKIDVFKFNSSKLRVNKLILQLCIGNHDLFMRRRKADSLEVQQMKAQAREEKARKQMERQRLAREKQMREEAERTRDELERRLLQMKEEATMANEALMRSEETADLLAEKAQITEEEAKLLAQKAAEAEQEMQRIKATAIRTEEEKRLMEQKVLEAEVLALKMAEESERRAKEADQLKQDLQEAREAERRAKQKLLEIATKPTYPPMNPIPAPLPPDIPSFNLIGDSLSFDFKDTDMKRLAMEIEKEKVEYMEKSKHLQEQLNELKTEIEALKLKERETALDILHNENSDRGGSSKHNTIKKLTLQSAKSRVAFFEEL [S518A] | decreasing interaction
